Results reported in patent US20200071380A1, “COMBINATION THERAPIES COMPRISING SIRP ALPHA-BASED CHIMERIC PROTEINS” (Shattuck Labs, Inc., priority 2018, published 2020).

Tests used:
FcγR-Ia = FcγR-Ia (Homo sapiens, UniProt P12314); assay: SPR binding to FcγR-Ia; details: surface plasmon resonance (SPR)
From the text: Scale is shown and yellow arrows correspond with each identified monomer. A schematic of the hexamer species is shown to the right, depicting dimerization of the Fc domain and trimerization of the CD40L domain. […] Recombinant hSIRPα-Fc, hCD40L-Fc, and hIgG1 were used as positive controls. […] In both panels, the CHOK1 Parental is on the left and the CHOK1/hCD47 is on the right. […] For both graphs, the CHOK1 Parental is on the bottom. […] In this figure, the control is the top curve, the SIRPα-Fc-CD40L is the middle curve, and the anti-CD47 is the bottom curve.
The extracellular domain (ECD) of SIRPα and the ECD of CD40L were fused via an antibody Fc domain to generate SIRPαECD-Fc-CD40LECD chimeric proteins. When human proteins were used, the chimeric protein is referred to as hSIRPα-Fc-CD40L; when murine proteins were used, the chimeric protein is referred to as and mSIRPα-Fc-CD40L. […] The purified protein was then analyzed for the presence of each individual domain by Western blotting using anti-SIRPα, anti-Fc, and anti-CD40L antibodies (FIG. 3A, bottom). […] Next, binding affinities for SIRPα-Fc-CD40L to recombinant CD47, CD40, or Fc receptors were evaluated by surface plasmon resonance (SPR). […] A functional ELISA evaluated whether SIRPα-Fc-CD40L could outcompete a commercially available single-sided SIRPα-Fc control for binding to recombinant CD47 (FIG. 3H).

FcγR-IIb = molecular target: T1, FcγR-IIb (Homo sapiens, UniProt P31994); assay: SPR binding to FcγR-IIb; details: surface plasmon resonance (SPR)
T1 sequence (P31994 43-310): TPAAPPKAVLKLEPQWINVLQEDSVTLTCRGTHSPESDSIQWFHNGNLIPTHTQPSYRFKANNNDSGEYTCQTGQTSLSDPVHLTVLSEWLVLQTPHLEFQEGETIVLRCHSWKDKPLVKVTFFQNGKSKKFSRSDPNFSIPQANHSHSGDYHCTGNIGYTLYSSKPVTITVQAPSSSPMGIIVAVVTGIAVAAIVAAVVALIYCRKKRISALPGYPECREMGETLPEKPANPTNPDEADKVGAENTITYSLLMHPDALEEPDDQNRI
From the text: (§1) The extracellular domain (ECD) of SIRPα and the ECD of CD40L were fused via an antibody Fc domain to generate SIRPαECD-Fc-CD40LECD chimeric proteins. When human proteins were used, the chimeric protein is referred to as hSIRPα-Fc-CD40L; when murine proteins were used, the chimeric protein is referred to as and mSIRPα-Fc-CD40L. Generically, the chimeric protein is referred to as SIRPα-Fc-CD40L. […] Mammalian cells were then transfected with the hSIRPα-Fc-CD40L expressing construct, and the secreted protein was purified from conditioned media by affinity chromatography. The purified protein was then analyzed for the presence of each individual domain by Western blotting using anti-SIRPα, anti-Fc, and anti-CD40L antibodies (FIG. 3A, bottom). […] The reduced and deglycosylated form of the protein migrated at the predicted monomeric molecular weight of 90.1 kDa. […] Next, binding affinities for SIRPα-Fc-CD40L to recombinant CD47, CD40, or Fc receptors were evaluated by surface plasmon resonance (SPR). […] Finally, to confirm that SIRPα-Fc-CD40L interacted with native CD47 and CD40 in a similar manner to recombinant CD47 and CD40, CHOK1-hCD47 and CHOK1-hCD40 reporter cell lines were developed (FIG. 3F). […] A functional ELISA evaluated whether SIRPα-Fc-CD40L could outcompete a commercially available single-sided SIRPα-Fc control for binding to recombinant CD47 (FIG. 3H).

FcγR-IIIb = FcγR-IIIb (Homo sapiens, UniProt O75015); assay: SPR binding to FcγR-IIIb; details: surface plasmon resonance (SPR)
From the text: as §1

[1] = test system: CD8+ T cell-depleted PBMC; assay: Proliferation of CD8+ T cell-depleted PBMC ([3H]-thymidine); format: cell-based, human; details: 0.3, 3, 30, or 300 nM; 7-day culture
Procedure: (§2) Here, proliferation was assessed via [^3H]-Thymidine incorporation on days 5, 6, and 7. The order of samples (in triplicate) along the X-axis is media only, KLH, Exenatide, 0.3 nm SIRPα-Fc-CD40L, 3 nm SIRPα-Fc-CD40L, 30 nm SIRPα-Fc-CD40L and 300 nm SIRPα-Fc-CD40L. […] Here, proliferation was assessed by ELISpot. The order of samples (in triplicate) along the X-axis is media only, KLH, Exenatide, 0.3 nm SIRPα-Fc-CD40L, 3 nm SIRPα-Fc-CD40L, 30 nm SIRPα-Fc-CD40L and 300 nm SIRPα-Fc-CD40L.
(§3) The observation that SIRPα-Fc-CD40L stimulated CD40 signaling prompted investigation of other cellular functions that depend upon CD40 signaling. CD8+ T cell-depleted PBMC were isolated from a total of 33-50 different human donors and cultured in the presence of a dose-titration of hSIRPα-Fc-CD40L (FIG. 6A and FIG. 6B).

[2] = test system: CD8+ T cell-depleted PBMC; assay: IL-2 ELISpot of CD8+ T cell-depleted PBMC; format: cell-based, human; details: day 8 of the culture
Procedure: as §2, §3

[3] = Repeat-dose safety and activity study in cynomolgus macaques; format: in vivo; details: intravenous infusion every week for five weeks, 0.1, 1, 10 and 40 mg/kg
Procedure: FIG. 21A-D is a graph showing cynomolgus macaques that were treated with vehicle, or 0.1, 1, 10, and 40 mg/kg of SIRPα-Fc-CD40L. Blood chemistry analysis assessed peripheral erythrocyte counts (FIG. 21A), hemoglobin levels (FIG. 21C), and hematocrit (FIG. 21B). In addition, the fold-change in lymphocyte count from pre-dose to 24 hours post-dose is shown (FIG. 21D).
The experiments of this example tested the safety and activity of the human SIRPα-Fc-CD40L chimeric protein following repeat doses in cynomolgus macaques. Briefly, naïve cynomolgus macaques were administered the human SIRPα-Fc-CD40L chimeric protein by intravenous infusion every week, for five consecutive weeks, at doses of 0.1, 1, 10 and 40 mg/kg. Standard hematology and clinical chemistry parameters were collected before and after each dose.
Receptor occupancy was evaluated on circulating CD40+ lymphocytes.

Chain of FcγR-IIIb (O75015 17-200): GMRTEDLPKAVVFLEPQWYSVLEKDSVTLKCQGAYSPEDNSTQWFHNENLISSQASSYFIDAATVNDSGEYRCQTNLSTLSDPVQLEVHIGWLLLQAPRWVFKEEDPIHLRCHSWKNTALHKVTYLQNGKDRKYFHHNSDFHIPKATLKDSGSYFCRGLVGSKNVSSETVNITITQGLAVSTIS
Chain of FcγR-Ia (P12314 16-374): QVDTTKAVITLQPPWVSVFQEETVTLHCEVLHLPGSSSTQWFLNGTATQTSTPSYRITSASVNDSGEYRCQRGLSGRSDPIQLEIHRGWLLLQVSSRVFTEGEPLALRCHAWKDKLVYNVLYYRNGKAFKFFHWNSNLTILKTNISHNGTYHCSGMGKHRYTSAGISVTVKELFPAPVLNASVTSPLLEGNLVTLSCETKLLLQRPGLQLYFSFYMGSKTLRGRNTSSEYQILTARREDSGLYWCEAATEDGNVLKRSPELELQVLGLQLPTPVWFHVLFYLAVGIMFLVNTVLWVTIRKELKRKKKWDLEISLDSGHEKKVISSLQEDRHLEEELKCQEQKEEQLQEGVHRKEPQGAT

binding to FcγR-Ia (FcγR-Ia): undetectable binding | binding to FcγR-IIb (FcγR-IIb): undetectable binding | binding to FcγR-IIIb (FcγR-IIIb): undetectable binding
Substance: hSIRPα-Fc-CD40L: Chimeric protein: human SIRPα extracellular domain fused via an antibody Fc domain to human CD40L extracellular domain (SEQ ID NO: 60)
proliferation of human PBMC [1]: dose-dependent proliferation of human PBMC | number of IL-2-secreting PBMC [2]: dose-dependent increase in the number of IL-2-secreting PBMC | hemolysis or thrombocytopenia [3]: no evidence of hemolysis or thrombocytopenia
